Reference: patent US20200079833A1 (AstraZeneca / MedImmune, published 2020)
Starred links: 1 amine or outer side, 2 acyl side, 3 side chain; linkers in the order of their positions; H or OH if unused. Non-standard residues stand in square brackets, D forms with d. Groups on a side chain read outwards from the residue. Primed or numbered codes have the meaning given here. No end group written: not given here. *: point of attachment. γGlu = O=C(O)[C@H](CCC(=O)[*:2])N[*:1]; Stearoyl = CCCCCCCCCCCCCCCCCC(=O)*; αMeF = C[C@](N)(Cc1ccccc1)C(=O)O; αMeK = C[C@](N)(CCCCN)C(=O)O; αMeS = C[C@](N)(CO)C(=O)O; PEG2′ = not defined here; Aib = CC(C)(N)C(=O)O; Ahx = NCCCCCC(=O)O

T1: glucose-dependent insulinotropic peptide (gastric inhibitory polypeptide) receptor (GIPR) (human, UniProt P48546 22-466)
T1 sequence (looked up): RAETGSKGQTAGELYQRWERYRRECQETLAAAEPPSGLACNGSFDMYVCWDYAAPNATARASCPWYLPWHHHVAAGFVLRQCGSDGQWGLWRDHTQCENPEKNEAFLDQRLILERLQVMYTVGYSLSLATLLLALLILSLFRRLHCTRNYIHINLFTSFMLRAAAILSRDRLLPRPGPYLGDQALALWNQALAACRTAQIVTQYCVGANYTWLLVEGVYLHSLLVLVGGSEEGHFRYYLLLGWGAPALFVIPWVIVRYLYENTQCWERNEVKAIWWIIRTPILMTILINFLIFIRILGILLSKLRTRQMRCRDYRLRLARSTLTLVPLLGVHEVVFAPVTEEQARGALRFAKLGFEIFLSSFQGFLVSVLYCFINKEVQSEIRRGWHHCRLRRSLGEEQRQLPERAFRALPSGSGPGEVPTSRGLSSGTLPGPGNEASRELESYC


Columns and labels:
Experiment in all cases: cell-based or functional assay
[1] = target: T1, glucose-dependent insulinotropic …
glucagon receptor (GCGR) = glucagon receptor (GCGR) (human, UniProt P47871 26-477)
Chain of glucagon receptor (GCGR) (P47871 26-477): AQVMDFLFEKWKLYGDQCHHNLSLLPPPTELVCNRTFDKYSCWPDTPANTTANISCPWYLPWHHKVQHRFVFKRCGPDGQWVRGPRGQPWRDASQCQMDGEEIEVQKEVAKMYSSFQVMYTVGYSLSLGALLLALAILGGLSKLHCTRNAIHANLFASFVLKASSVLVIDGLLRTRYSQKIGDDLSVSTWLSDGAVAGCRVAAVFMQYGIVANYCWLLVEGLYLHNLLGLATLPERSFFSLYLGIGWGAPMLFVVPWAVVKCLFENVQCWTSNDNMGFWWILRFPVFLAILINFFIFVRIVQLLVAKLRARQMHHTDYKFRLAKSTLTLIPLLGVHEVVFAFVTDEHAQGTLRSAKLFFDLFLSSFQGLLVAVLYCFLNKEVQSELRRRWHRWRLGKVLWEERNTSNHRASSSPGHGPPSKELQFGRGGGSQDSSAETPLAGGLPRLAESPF

GLP-1 receptor (GLP-1R) = GLP-1 receptor (GLP-1R) (human, UniProt P43220 24-463)

Primary assay EC50 (cAMP), GIP-R, first run [1] [nM] | Primary assay EC50 (cAMP), GIP-R, second run [1] [nM] | Primary assay EC50 (cAMP), Gluc-R, first run (glucagon receptor (GCGR)) [nM] | Primary assay EC50 (cAMP), Gluc-R, second run (glucagon receptor (GCGR)) [nM] | Primary assay EC50 (cAMP), GLP-1R n1 (GLP-1 receptor (GLP-1R)) [nM] | Primary assay EC50 (cAMP), GLP-1R n2 (GLP-1 receptor (GLP-1R)) [nM] | Primary assay EC50 (cAMP), Mean pM GLP-1R (GLP-1 receptor (GLP-1R)) [pM] | Binder
26 | 26 | 26 | 26 | 0.0097 | 0.0047 | 7.2 | H[Aib]EGS[αMeF]TSDV[αMeS]S[αMeF]LEGEAA[αMeK]E[αMeF]IA[αMeF]VVK([PEG2′-PEG2′-PEG2′-Stearoyl])GG-NH2 [SEQ ID NO 190]
27 | 27 | 27 | 27 | 0.13 | 0.05 | 87.5 | H[Aib]EGS[αMeF]TSDV[αMeS]S[αMeF]LEGEAA[αMeK]E[αMeF]IA[αMeF]VVK([Ahx-Ahx-Stearoyl])GG-NH2 (N-terminus assumed; SMILES CCCCCCCCCCCCCCCCCC(=O)NCCCCCC(=O)NCCCCCC(=O)NCCCC[C@H](NC(=O)[C@@H](NC(=O)[C@@H](NC(=O)[C@](C)(Cc1ccccc1)NC(=O)[C@H](C)NC(=O)[C@@H](NC(=O)[C@](C)(Cc1ccccc1)NC(=O)[C@H](CCC(=O)O)NC(=O)[C@](C)(CCCCN)NC(=O)[C@H](C)NC(=O)[C@H](C)NC(=O)[C@H](CCC(=O)O)NC(=O)CNC(=O)[C@H](CCC(=O)O)NC(=O)[C@H](CC(C)C)NC(=O)[C@](C)(Cc1ccccc1)NC(=O)[C@H](CO)NC(=O)[C@](C)(CO)NC(=O)[C@@H](NC(=O)[C@H](CC(=O)O)NC(=O)[C@H](CO)NC(=O)[C@@H](NC(=O)[C@](C)(Cc1ccccc1)NC(=O)[C@H](CO)NC(=O)CNC(=O)[C@H](CCC(=O)O)NC(=O)C(C)(C)NC(=O)[C@@H](N)Cc1c[nH]cn1)[C@@H](C)O)C(C)C)[C@@H](C)CC)C(C)C)C(C)C)C(=O)NCC(=O)NCC(N)=O) [SEQ ID NO 186]
26 | 26 | 26 | 26 | 0.064 | 0.031 | 47.4 | H[Aib]EGS[αMeF]TSDV[αMeS]S[αMeF]LEGEAA[αMeK]E[αMeF]IA[αMeF]VVK([Ahx-Ahx-Ahx-Stearoyl])GG-NH2 (N-terminus assumed; SMILES CCCCCCCCCCCCCCCCCC(=O)NCCCCCC(=O)NCCCCCC(=O)NCCCCCC(=O)NCCCC[C@H](NC(=O)[C@@H](NC(=O)[C@@H](NC(=O)[C@](C)(Cc1ccccc1)NC(=O)[C@H](C)NC(=O)[C@@H](NC(=O)[C@](C)(Cc1ccccc1)NC(=O)[C@H](CCC(=O)O)NC(=O)[C@](C)(CCCCN)NC(=O)[C@H](C)NC(=O)[C@H](C)NC(=O)[C@H](CCC(=O)O)NC(=O)CNC(=O)[C@H](CCC(=O)O)NC(=O)[C@H](CC(C)C)NC(=O)[C@](C)(Cc1ccccc1)NC(=O)[C@H](CO)NC(=O)[C@](C)(CO)NC(=O)[C@@H](NC(=O)[C@H](CC(=O)O)NC(=O)[C@H](CO)NC(=O)[C@@H](NC(=O)[C@](C)(Cc1ccccc1)NC(=O)[C@H](CO)NC(=O)CNC(=O)[C@H](CCC(=O)O)NC(=O)C(C)(C)NC(=O)[C@@H](N)Cc1c[nH]cn1)[C@@H](C)O)C(C)C)[C@@H](C)CC)C(C)C)C(C)C)C(=O)NCC(=O)NCC(N)=O) [SEQ ID NO 187]
28 | 28 | 28 | 28 | 0.38 | 0.12 | 251 | H[Aib]EGS[αMeF]TSDV[αMeS]S[αMeF]LEGEAA[αMeK]E[αMeF]IA[αMeF]VVK([Ahx-Stearoyl])GG-NH2 (N-terminus assumed; SMILES CCCCCCCCCCCCCCCCCC(=O)NCCCCCC(=O)NCCCC[C@H](NC(=O)[C@@H](NC(=O)[C@@H](NC(=O)[C@](C)(Cc1ccccc1)NC(=O)[C@H](C)NC(=O)[C@@H](NC(=O)[C@](C)(Cc1ccccc1)NC(=O)[C@H](CCC(=O)O)NC(=O)[C@](C)(CCCCN)NC(=O)[C@H](C)NC(=O)[C@H](C)NC(=O)[C@H](CCC(=O)O)NC(=O)CNC(=O)[C@H](CCC(=O)O)NC(=O)[C@H](CC(C)C)NC(=O)[C@](C)(Cc1ccccc1)NC(=O)[C@H](CO)NC(=O)[C@](C)(CO)NC(=O)[C@@H](NC(=O)[C@H](CC(=O)O)NC(=O)[C@H](CO)NC(=O)[C@@H](NC(=O)[C@](C)(Cc1ccccc1)NC(=O)[C@H](CO)NC(=O)CNC(=O)[C@H](CCC(=O)O)NC(=O)C(C)(C)NC(=O)[C@@H](N)Cc1c[nH]cn1)[C@@H](C)O)C(C)C)[C@@H](C)CC)C(C)C)C(C)C)C(=O)NCC(=O)NCC(N)=O) [SEQ ID NO 185]
27 | 27 | 27 | 27 | 0.03 | 0.012 | 20.8 | H[Aib]EGS[αMeF]TSDV[αMeS]S[αMeF]LEGEAA[αMeK]E[αMeF]IA[αMeF]VVK([PEG2′-PEG2′-Stearoyl])GG-NH2 [SEQ ID NO 189]
27 | 27 | 27 | 27 | 0.17 | 0.06 | 114 | H[Aib]EGS[αMeF]TSDV[αMeS]S[αMeF]LEGEAA[αMeK]E[αMeF]IA[αMeF]VVK([γGlu-γGlu-Stearoyl])GG-NH2 (N-terminus assumed; SMILES CCCCCCCCCCCCCCCCCC(=O)N[C@@H](CCC(=O)N[C@@H](CCC(=O)NCCCC[C@H](NC(=O)[C@@H](NC(=O)[C@@H](NC(=O)[C@](C)(Cc1ccccc1)NC(=O)[C@H](C)NC(=O)[C@@H](NC(=O)[C@](C)(Cc1ccccc1)NC(=O)[C@H](CCC(=O)O)NC(=O)[C@](C)(CCCCN)NC(=O)[C@H](C)NC(=O)[C@H](C)NC(=O)[C@H](CCC(=O)O)NC(=O)CNC(=O)[C@H](CCC(=O)O)NC(=O)[C@H](CC(C)C)NC(=O)[C@](C)(Cc1ccccc1)NC(=O)[C@H](CO)NC(=O)[C@](C)(CO)NC(=O)[C@@H](NC(=O)[C@H](CC(=O)O)NC(=O)[C@H](CO)NC(=O)[C@@H](NC(=O)[C@](C)(Cc1ccccc1)NC(=O)[C@H](CO)NC(=O)CNC(=O)[C@H](CCC(=O)O)NC(=O)C(C)(C)NC(=O)[C@@H](N)Cc1c[nH]cn1)[C@@H](C)O)C(C)C)[C@@H](C)CC)C(C)C)C(C)C)C(=O)NCC(=O)NCC(N)=O)C(=O)O)C(=O)O) [SEQ ID NO 192]
28 | 28 | 28 | 28 | 0.25 | 0.11 | 182 | H[Aib]EGS[αMeF]TSDV[αMeS]S[αMeF]LEGEAA[αMeK]E[αMeF]IA[αMeF]VVK([γGlu-Stearoyl])GG-NH2 (N-terminus assumed; SMILES CCCCCCCCCCCCCCCCCC(=O)N[C@@H](CCC(=O)NCCCC[C@H](NC(=O)[C@@H](NC(=O)[C@@H](NC(=O)[C@](C)(Cc1ccccc1)NC(=O)[C@H](C)NC(=O)[C@@H](NC(=O)[C@](C)(Cc1ccccc1)NC(=O)[C@H](CCC(=O)O)NC(=O)[C@](C)(CCCCN)NC(=O)[C@H](C)NC(=O)[C@H](C)NC(=O)[C@H](CCC(=O)O)NC(=O)CNC(=O)[C@H](CCC(=O)O)NC(=O)[C@H](CC(C)C)NC(=O)[C@](C)(Cc1ccccc1)NC(=O)[C@H](CO)NC(=O)[C@](C)(CO)NC(=O)[C@@H](NC(=O)[C@H](CC(=O)O)NC(=O)[C@H](CO)NC(=O)[C@@H](NC(=O)[C@](C)(Cc1ccccc1)NC(=O)[C@H](CO)NC(=O)CNC(=O)[C@H](CCC(=O)O)NC(=O)C(C)(C)NC(=O)[C@@H](N)Cc1c[nH]cn1)[C@@H](C)O)C(C)C)[C@@H](C)CC)C(C)C)C(C)C)C(=O)NCC(=O)NCC(N)=O)C(=O)O) [SEQ ID NO 191]
28 | 28 | 28 | 28 | 0.17 | 0.077 | 125 | H[Aib]EGS[αMeF]TSDV[αMeS]S[αMeF]LEGEAA[αMeK]E[αMeF]IA[αMeF]VVK([PEG2′-Stearoyl])GG-NH2 [SEQ ID NO 188]
